Article PMC11910330, “Familial Alzheimer’s disease mutations in amyloid precursor protein impair calcineurin signaling to NMDA receptors” (The Journal of Biological Chemistry, 2024)

Experiments:
[1] = molecular target: APLP1 peptide (APLP1 core sequence in the PVIVIT peptide); assay: pull-down; biotinylated peptides (10 ug) precoupled to streptavidin-coated beads, incubated with 200 ng GST-CaN in 200 ul for 30 min at 4 C; PBS with 0.1% Tween-20 and 0.1% BSA, or 150 mM NaCl, 10 mM Hepes, 5 mM EDTA, pH 7.4 with 0.5% CHAPSO and 0.1% BSA; immunoblot with anti-CaN, normalised to a GST-CaN standard
[2] = molecular target: APLP2 peptide (APLP2 core sequence in the PVIVIT peptide); assay: as above

With “recombinant GST-tagged CaN A subunit (from UniProt Q08209 1-521) (enzyme)” as the substance, how does the percent lower CaN binding than the PVIVIT peptide [1] read?
The percent lower CaN binding than the PVIVIT peptide was 80%.

And the percent lower CaN binding than the PVIVIT peptide [2]?
Its percent lower CaN binding than the PVIVIT peptide is 30%.
